{
  "source": "paper doi:10.1101/2020.08.04.235895",
  "about": "“Analysis of Structure and function by the LysR-Type Transcriptional Regulator CbbR of Nostoc sp. PCC 7120”",
  "binders": {"B1": {"name": "FAM-DNA (rbcLXS promoter probe) (dsDNA)", "DNA 1": "TAATAACAAATTTAAATATGTAAGTTAAGAACTTTCAAAGAATAACTTATGCCATTTCTTGATAT", "DNA 2": "ATATCAAGAAATGGCATAAGTTATTCTTTGAAAGTTCTTAACTTACATATTTAAATTTGTTATTA"}, "B2": {"name": "BOX 1 (dsDNA)", "DNA 1": "TAATAACAAATTTAAATAT", "DNA 2": "ATATTTAAATTTGTTATTA"}, "B3": {"name": "BOX 3 (dsDNA)", "DNA 1": "TTATGCCATTTCTTGATAT", "DNA 2": "ATATCAAGAAATGGCATAA"}, "B4": {"name": "BOX1OP1 (dsDNA)", "DNA 1": "TGTAATAACAAATTTAAATATGTCATATAACAAATTTAAATATGT", "DNA 2": "ACATATTTAAATTTGTTATATGACATATTTAAATTTGTTATTACA"}, "B5": {"name": "BOX 2 (dsDNA)", "DNA 1": "AGTTAAGAACTTTCAAAGA", "DNA 2": "TCTTTGAAAGTTCTTAACT"}},
  "key": {"CbbR_7120 [1]": {"target": "T1, CbbR_7120 (Nostoc sp. PCC 7120, UniProt Q8YQ82 1-337)", "T1 sequence": "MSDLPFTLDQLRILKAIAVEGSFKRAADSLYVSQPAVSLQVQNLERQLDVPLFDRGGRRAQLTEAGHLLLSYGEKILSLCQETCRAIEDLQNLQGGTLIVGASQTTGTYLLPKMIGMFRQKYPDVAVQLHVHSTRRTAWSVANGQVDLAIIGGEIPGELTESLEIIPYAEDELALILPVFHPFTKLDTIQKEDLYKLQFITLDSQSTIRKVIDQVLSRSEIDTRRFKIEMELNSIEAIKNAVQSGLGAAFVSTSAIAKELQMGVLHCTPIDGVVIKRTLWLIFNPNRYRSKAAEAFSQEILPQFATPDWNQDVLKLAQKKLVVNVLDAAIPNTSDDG", "assay": "EMSA; EMSA: 5X buffer 100 mM HEPES pH 7.6, 5 mM EDTA, 50 mM (NH4)2SO4, 5 mM DTT, 1% Tween 20, 150 mM KCl (2.5 uL per reaction, volume printed as 10 mL); 15 min on ice; 6% TBE-PAGE on ice", "conditions": "protein: recombinant; tags: N-terminal 6xHis; chain copies: 4; label: 5'-FAM on forward strand; blunt"}, "CbbR_7120 [2]": {"target": "T1, CbbR_7120", "assay": "competition EMSA; competitor vs FAM-DNA; EMSA: 5X buffer 100 mM HEPES pH 7.6, 5 mM EDTA, 50 mM (NH4)2SO4, 5 mM DTT, 1% Tween 20, 150 mM KCl (2.5 uL per reaction, volume printed as 10 mL); 15 min on ice; 6% TBE-PAGE on ice", "conditions": "protein: recombinant; tags: N-terminal 6xHis; chain copies: 4; blunt"}, "CbbR_7120 [3]": {"target": "T1, CbbR_7120", "assay": "competition EMSA; competitor vs FAM-DNA; EMSA: 5X buffer 100 mM HEPES pH 7.6, 5 mM EDTA, 50 mM (NH4)2SO4, 5 mM DTT, 1% Tween 20, 150 mM KCl (2.5 uL per reaction, volume printed as 10 mL); 15 min on ice; 6% TBE-PAGE on ice", "conditions": "protein: recombinant; tags: N-terminal 6xHis; chain copies: 4; blunt", "remark": "listed apart in the source"}, "CbbR_7120 [4]": {"target": "T1, CbbR_7120", "assay": "competition EMSA; competitor vs FAM-DNA; EMSA: 5X buffer 100 mM HEPES pH 7.6, 5 mM EDTA, 50 mM (NH4)2SO4, 5 mM DTT, 1% Tween 20, 150 mM KCl (2.5 uL per reaction, volume printed as 10 mL); 15 min on ice; 6% TBE-PAGE on ice", "conditions": "protein: recombinant; tags: N-terminal 6xHis; chain copies: 4; blunt", "remark": "listed apart in the source"}, "CbbR_7120 [5]": {"target": "T1, CbbR_7120", "assay": "competition EMSA; competitor vs FAM-DNA; no significant change in free FAM-DNA; EMSA: 5X buffer 100 mM HEPES pH 7.6, 5 mM EDTA, 50 mM (NH4)2SO4, 5 mM DTT, 1% Tween 20, 150 mM KCl (2.5 uL per reaction, volume printed as 10 mL); 15 min on ice; 6% TBE-PAGE on ice", "conditions": "protein: recombinant; tags: N-terminal 6xHis; chain copies: 4; blunt"}},
  "data": [
    {"binder": "B1", "values": [
      {"measurement": "binding result", "setting": "CbbR_7120 [1]", "value": "binds"}
    ]},
    {"binder": "B2", "values": [
      {"measurement": "binding signal", "setting": "CbbR_7120 [2]", "value": "~400 competitor:FAM-DNA ratio for complete competition"}
    ]},
    {"binder": "B3", "values": [
      {"measurement": "binding signal", "setting": "CbbR_7120 [3]", "value": "~1000 competitor:FAM-DNA ratio for complete competition"}
    ]},
    {"binder": "B4", "values": [
      {"measurement": "binding signal", "setting": "CbbR_7120 [4]", "value": "~10 competitor:FAM-DNA ratio for complete competition"}
    ]},
    {"binder": "B5", "values": [
      {"measurement": "binding result", "setting": "CbbR_7120 [5]", "value": "no binding"}
    ]}
  ]
}
